Assays:
[1] = molecular target: mCerulean3-Bcl-2 (human) (UniProt P10415); experiment: FRET or BRET; FLIM-FRET in live MCF-7 cells: mCer3-Bcl-XL or mCer3-Bcl-2 stably expressed (donor), Venus-BH3 protein transiently expressed (acceptor); binding curves of FLIM-FRET efficiency against the Venus:mCer3 intensity ratio, 25 C; untreated, DMSO, 20 uM ABT-263 (18-24 h) or 1.25-20 uM A-1155463, A-1331852, ABT-263; R values interpolated at ratio 0.5 (Bcl-XL) or 0.25 (Bcl-2), ^VBad4E signal subtracted
[2] = molecular target: mCerulean3-Bcl-XL (human) (UniProt Q07817); experiment: as above
Sequence of mCerulean3-Bcl-XL (human) (Q07817 whole entry): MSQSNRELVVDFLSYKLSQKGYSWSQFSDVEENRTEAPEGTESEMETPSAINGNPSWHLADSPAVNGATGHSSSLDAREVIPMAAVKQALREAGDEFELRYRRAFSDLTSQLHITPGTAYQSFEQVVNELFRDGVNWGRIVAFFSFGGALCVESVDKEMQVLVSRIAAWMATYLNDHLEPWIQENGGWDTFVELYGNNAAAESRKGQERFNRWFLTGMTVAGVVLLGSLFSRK

[3] = molecular target: Bcl-XL single-cysteine mutant 152C, Alexa647-labelled (human) (UniProt Q07817); experiment: FRET or BRET; purified Alexa568-labelled BH3 protein (10 nM) and Alexa647-labelled Bcl-XL (40 nM) with liposomes, ABT-263 titrated in; 37 C, 1 h; relative displacements, not absolute affinity
Sequence of Bcl-XL single-cysteine mutant 152C, Alexa647-labelled (human) (Q07817 other isoform, or with tags, fused parts or gaps mutant): as the sequence (Q07817 whole entry) above, with V152C counted along it

Sequence of mCerulean3-Bcl-2 (human) (P10415 whole entry): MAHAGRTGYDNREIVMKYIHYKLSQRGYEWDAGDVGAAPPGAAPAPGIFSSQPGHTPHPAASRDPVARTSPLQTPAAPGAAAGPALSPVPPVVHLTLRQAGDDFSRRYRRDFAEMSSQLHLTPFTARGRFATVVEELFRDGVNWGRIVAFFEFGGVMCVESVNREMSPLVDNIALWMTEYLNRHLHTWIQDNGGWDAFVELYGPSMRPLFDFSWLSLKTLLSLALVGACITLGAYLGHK
Sequence of Venus-BimEL BH3-2A (O54918 whole entry): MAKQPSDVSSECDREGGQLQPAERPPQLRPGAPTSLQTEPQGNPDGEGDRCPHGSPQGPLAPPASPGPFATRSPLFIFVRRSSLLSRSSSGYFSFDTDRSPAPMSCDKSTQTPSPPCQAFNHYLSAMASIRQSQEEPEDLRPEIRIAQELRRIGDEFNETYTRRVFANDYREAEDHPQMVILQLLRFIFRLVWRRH
Sequence of Venus-BimEL-dN (domain or fragment) (O54918 whole entry, the tested form may be a part): as the sequence (O54918 whole entry) above
Sequence of Venus-BimEL-dCTS (domain or fragment) (O54918 whole entry, the tested form may be a part): as the sequence (O54918 whole entry) above

| Substance | R (ABT-263), % of FRET signal left with 20 uM ABT-263 [1] | R (ABT-263), % of FRET signal left with 20 uM ABT-263 [2] | R (BH3-2A), % of FRET signal of the same construct without BH3-2A [2] | R (BH3-2A), % of FRET signal of the same construct without BH3-2A [1] | other results |
| --- | --- | --- | --- | --- | --- |
| Venus-Bad-Bim-Q148R | 53.5% | 89.8% |  |  |  |
| Venus-BimEL-I146Y-dCTS (domain or fragment) | 52.9% | 38.5% |  |  |  |
| Venus-BimEL-L185R BH3-2A (from UniProt O54918-1 1-196) (natural protein) |  |  | 48.1% |  |  |
| Venus-BimEL with the BH3 region of Bad | 65.8% | 60.5% |  |  |  |
| Venus-Bad-Bim-I146Y-Q148R BH3-2A |  |  | 50.5% | 37.7% |  |
| Venus-BimEL-L185A BH3-2A (from UniProt O54918-1 1-196) (natural protein) |  |  | 159% |  |  |
| Venus-BimEL-V192E BH3-2A (from UniProt O54918-1 1-196) (natural protein) |  |  | 52.6% | 54.5% |  |
| Venus-Bad-Bim-I146Y BH3-2A |  |  | 46.6% |  |  |
| Venus-Bad-Bim BH3-2A |  |  | 70.2% | 54.9% |  |
| Venus-BimEL BH3-2A (from UniProt O54918-1 1-196) (natural protein) |  |  | 81.4% | 66.8% |  |
| Venus-BimEL-dCTS BH3-2A (domain or fragment) |  |  | 15.1% | 13.6% |  |
| Venus-BimEL-L185M BH3-2A (from UniProt O54918-1 1-196) (natural protein) |  |  | 90% |  |  |
| Venus-Bad-Bim-I146Y-I153M BH3-2A |  |  | 56.8% | 42.6% |  |
| Venus-Bad with the BH3 region of Bim | 65.5% | 98% |  |  |  |
| Venus-BimEL-L185P BH3-2A (from UniProt O54918-1 1-196) (natural protein) |  |  | 59% |  |  |
| Venus-Bad-Bim-I153M BH3-2A |  |  | 96.5% | 102% |  |
| Venus-BimEL-Bad-dCTS | 12.5% | 40.2% |  |  |  |

| Substance | R (ABT-263), % of FRET signal left with 20 uM ABT-263 [1] | R (ABT-263), % of FRET signal left with 20 uM ABT-263 [2] | R (BH3-2A), % of FRET signal of the same construct without BH3-2A [2] | R (BH3-2A), % of FRET signal of the same construct without BH3-2A [1] | other results |
| --- | --- | --- | --- | --- | --- |
| Venus-BimEL-dCTS (domain or fragment) | 60% | 69% |  |  |  |
| Bid single-cysteine mutant 126C (tBid, added as cBid), Alexa568-labelled (domain or fragment) |  |  |  |  | IC50 of ABT-263 for displacing the pair [3]: 400 nM |
| Venus-Bad-Bim-I153M | 68.5% | 92.8% |  |  |  |
| Venus-BimEL-L185H BH3-2A (from UniProt O54918-1 1-196) (natural protein) |  |  | 49.1% |  |  |
| Venus-Bad-Bim-I146Y-I153M | 69.1% | 89% |  |  |  |
| Venus-BimEL-I188E BH3-2A (from UniProt O54918-1 1-196) (natural protein) |  |  | 67.2% | 47.5% |  |
| Venus-BimEL-Bad BH3-2A |  |  | 26.1% |  |  |
| Venus-BimEL-L185G BH3-2A (from UniProt O54918-1 1-196) (natural protein) |  |  | 86.8% |  |  |
| Venus-BimEL-L185F BH3-2A (from UniProt O54918-1 1-196) (natural protein) |  |  | 100% |  |  |
| Venus-Bad-Bim-I146Y | 53.2% | 83.2% |  |  |  |
| Venus-Bad-Bim-Q148R BH3-2A |  |  | 74.5% | 56.9% |  |
| Venus-BimEL-I181E BH3-2A (from UniProt O54918-1 1-196) (natural protein) |  |  | 49.2% | 47.2% |  |
| Venus-BimEL-dN (domain or fragment) | 90.5% | 90.8% |  |  |  |
| Venus-BimEL-I146Y BH3-2A (from UniProt O54918-1 1-196) (natural protein) |  |  | 71% | 54.2% |  |
| Venus-Bad-Bim-I146Y-Q148R | 61.8% | 90.2% |  |  |  |
| Venus-BimEL-L185S BH3-2A (from UniProt O54918-1 1-196) (natural protein) |  |  | 73.5% |  |  |

From PMC6414199, “Bim escapes displacement by BH3-mimetic anti-cancer drugs by double-bolt locking both Bcl-XL and Bcl-2” (eLife, 2019)
